In paper PMC4112642, “Tomato PYR/PYL/RCAR abscisic acid receptors show high expression in root, differential sensitivity to the abscisic acid agonist quinabactin, and the capability to enhance plant drought resistance” (Journal of Experimental Botany, 2014):

How the values were obtained:
[1] = target: 8g076960 tomato ABA receptor, recombinant, purified for size exclusion chromatography (tomato (Solanum lycopersicum)); assay: SEC; Superdex200 10/30 in 25mM TRIS-HCl pH 8.0, 200mM NaCl, 5mM beta-mercaptoethanol, in the absence of ABA; about 1mg loaded of 8g076960, 6g061180 or 6g050500 (concentrated to 10mg ml^-1), 0.1mg of 12g055990 (0.7mg ml^-1)
[2] = target: 6g061180 tomato ABA receptor, recombinant, purified for size exclusion chromatography (tomato (Solanum lycopersicum)); assay: as above
[3] = target: T1, 8g076960 (Sl08g076960) with ΔN 12g096020 (Solanum lycopersicum, UniProt A0A3Q7HTY9); assay: receptor-mediated PP2C inhibition, RRA(phosphoT)VA phosphopeptide, molybdate dye; format: biochemical; details: agonist; 0.5 μM PP2C, 2 μM receptor, 0.1-10 μM ligand; 10 mM MgCl2, pH 7.5, 30 °C
T1 construct: gene LOC101268417; PP2C N-terminally deleted catalytic core 178-509; with Protein phosphatase 2C HAB1-like (clade A)

[4] = target: T2, 6g061180 (Sl06g061180) with ΔN 12g096020 (Solanum lycopersicum, UniProt A0A3Q7HQZ7); assay: as above; format: biochemical; details: agonist; 0.5 μM PP2C, 2 μM receptor, 0.1-10 μM ligand; 10 mM MgCl2, pH 7.5, 30 °C
T2 construct: gene LOC101267127; PP2C N-terminally deleted catalytic core 178-509; with Protein phosphatase 2C HAB1-like (clade A)

[5] = target: the molecule itself; assay: SEC; Superdex200 10/30 in 25mM TRIS-HCl pH 8.0, 200mM NaCl, 5mM beta-mercaptoethanol, in the absence of ABA; about 1mg loaded of 8g076960, 6g061180 or 6g050500 (concentrated to 10mg ml^-1), 0.1mg of 12g055990 (0.7mg ml^-1)

T2 sequence (A0A3Q7HQZ7 entry or part of it, stated change not applied): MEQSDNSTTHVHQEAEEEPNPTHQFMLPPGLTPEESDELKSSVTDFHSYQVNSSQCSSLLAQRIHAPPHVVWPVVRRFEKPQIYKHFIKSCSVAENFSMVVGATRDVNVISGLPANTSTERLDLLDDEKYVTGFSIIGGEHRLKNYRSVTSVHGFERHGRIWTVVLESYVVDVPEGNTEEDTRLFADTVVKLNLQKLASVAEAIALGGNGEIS
T1 sequence (A0A3Q7HTY9 entry or part of it, stated change not applied): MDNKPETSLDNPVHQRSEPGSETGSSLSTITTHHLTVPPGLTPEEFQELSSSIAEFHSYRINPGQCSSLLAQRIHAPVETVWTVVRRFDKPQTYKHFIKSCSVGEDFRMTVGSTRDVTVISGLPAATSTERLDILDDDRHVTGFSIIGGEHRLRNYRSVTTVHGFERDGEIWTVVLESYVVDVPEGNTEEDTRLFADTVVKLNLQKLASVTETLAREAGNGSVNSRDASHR

## 8g076960 tomato ABA receptor, recombinant, purified for size exclusion chromatography
[1]
  stoichiometry N: 2

## 6g061180 tomato ABA receptor, recombinant, purified for size exclusion chromatography
[2]
  stoichiometry N: 2

## CCCN1C(=O)CCc2cc(NS(=O)(=O)Cc3ccc(C)cc3)ccc21 [quinabactin]
[3]
  % PP2C activity: QB inhibited (compared with ABA) ΔN12g096020 phosphatase activity efficiently through the dimeric tomato receptors 8g076960
[4]
  % PP2C activity: efficiently through the dimeric tomato receptors 8g076960 and 6g061180

B1: 6g050500 tomato ABA receptor, recombinant, purified for size exclusion chromatography (receptor)
chain: MPSSLQLHRINPTTATLAVKQPQLSQATTWFSPVSTSVPDNVLHHHTHVVGPNQCCSAVLQSISAPIDTVWSLVRRFDNPQAYKHFLKSCHVIVGDGDVGTLREVRVVSGLPAGSSTERLEILDDEKHVLSFSVVGGDHRLNNYRSVTTLHRAAEEGSTVVVESYVVDVPQGNTKEETCVFVDTIVRCNLQSLAQIAQNLAKTSKNHDEDPQLKIHRLVDFV
[5]
  stoichiometry N: 2
